Results on eight molecules are retold here after article PMC9293652 (The Journal of Biological Chemistry, 2022).

Where two headings read alike, the source gives them in different places.

For test [1], the target named is WWOX WW1-WW2 tandem domain (amino acids 16-91) (human). Kind of test: ITC.
Test [2] shares this target. In words: NMR titration.
Test [3] concerns the target T1, WWOX WW1 (amino acids 16-50) (human).
T1 chain: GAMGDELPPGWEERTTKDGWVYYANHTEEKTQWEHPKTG
In words: ITC. For orientation: In ITC the heat of successive injections is recorded.

For test [4], the target named is T2, WWOX WW2 (amino acids 57-91) (human).
T2 chain: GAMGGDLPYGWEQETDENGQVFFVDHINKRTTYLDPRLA
In words: ITC.

Test [5] addresses T3, WWOX WW1-WW2 tandem domain (amino acids 16-91) (human).
T3 chain: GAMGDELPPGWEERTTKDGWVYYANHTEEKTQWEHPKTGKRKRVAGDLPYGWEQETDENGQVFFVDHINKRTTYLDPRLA
Kind of test: ITC.

The target in test [6] is T3, WWOX WW1-WW2 tandem domain (amino acids …). Kind of test: NMR titration.
Test [7] has the same target. In words: NMR titration.

Regarding ErbB4 peptide PY2 (1048-1060), the Kd in test [1] was over 100 µM. Moreover, the KD WW1 (based on W44) in test [2] is 15 µM.

In test [1], ErbB4 peptide PY3 (1293-1305) displayed a Kd of 30 µM and a dH of -12.1 kcal/mol. For the same molecule, in test [2], the KD WW1 (based on W44) stood at 10 µM and the KD WW2 (based on V73) was over 1000 µM.

For the molecule ErbB4 peptide PY1 (1027-1039), the dissociation constant (Kd) in test [1] is over 100 µM. This molecule also gave a KD WW1 (based on W44) in test [2] of 21 µM.

GTVLPPPPYRHRN [ErbB4 peptide PY3 (1293-1305)]: the Kd in test [3] is 78 µM; in test [4], over 200 µM. The molecule also registered a dH in test [3] of -23 kcal/mol.

As to AFNIPPPIYTSRARIDSNRSEIGHSPPPAYTPMS [ErbB4 double-motif peptide PY1PY2 (1027-1060, natural linker)], in test [5], the Kd is 14 µM and the dH was -39 kcal/mol. Further, the “KD WW2 (based on V73)” value in test [6] was about 1000 µM. Also, in test [7], the “KD WW1 (based on W44)” value turned out to be 10 ± 2 µM.

Consider AFNIPPPIYTSRAGGGGGHSPPPAYTPMS [ErbB4 double-motif peptide PY1PY2S (natural linker replaced by polyglycine)], for which, in test [5], the Kd is 21 µM and the dH is -29 kcal/mol. The “KD WW2 (based on V73)” value in test [6] came to 70 ± 20 µM. Moreover, the “KD WW1 (based on W44)” value in test [7] worked out at 2 ± 1 µM.

In the case of AFNIPPPIYTSRAGGGGGTVLPPPPYRHRN [ErbB4 double-motif peptide PY1PY3 (polyglycine linker)], in test [5], the Kd was found to be 8 µM and the dH is -22 kcal/mol. In addition, the “KD WW2 (based on V73)” value in test [6] was 80 ± 20 µM. Besides, the “KD WW1 (based on W44)” value in test [7] came out at 6 ± 1 µM.

In the case of GTVLPPPPYRHRNGGGGGTVLPPPPYRHRN [ErbB4 double-motif peptide PY3PY3 (polyglycine linker)], in test [3], the equilibrium dissociation constant (Kd) is 50 µM and the dH is -39 kcal/mol. In test [5], the Kd turned out to be 3.1 µM and the dH is -24.9 kcal/mol. Besides, the “KD WW2 (based on V73)” value in test [6] came out at 40 ± 20 µM. Also, the “KD WW1 (based on W44)” value in test [7] turned out to be 0.6 ± 0.3 µM.

The term Kd denotes the free concentration of one partner at which half of the binding sites on the other are occupied at equilibrium, for simple one-to-one binding. Read a high Kd as lower affinity.
